Laboratory results taken from publication PMC1894825.

System: Lsr2 (Mycobacterium tuberculosis H37Rv)
Assay: EMSA

Row | Substance | Kd
1 | PiniBAC 227-bp amplicon | 1000 nM
2 | 16S rRNA gene 200-bp amplicon | 1000 nM
